Measurements: patent US20100216715A1 (Novo Nordisk, published 2010)

Biological target: T1, human beta-Klotho (human, UniProt Q86Z14 1-1044)
T1 sequence (looked up): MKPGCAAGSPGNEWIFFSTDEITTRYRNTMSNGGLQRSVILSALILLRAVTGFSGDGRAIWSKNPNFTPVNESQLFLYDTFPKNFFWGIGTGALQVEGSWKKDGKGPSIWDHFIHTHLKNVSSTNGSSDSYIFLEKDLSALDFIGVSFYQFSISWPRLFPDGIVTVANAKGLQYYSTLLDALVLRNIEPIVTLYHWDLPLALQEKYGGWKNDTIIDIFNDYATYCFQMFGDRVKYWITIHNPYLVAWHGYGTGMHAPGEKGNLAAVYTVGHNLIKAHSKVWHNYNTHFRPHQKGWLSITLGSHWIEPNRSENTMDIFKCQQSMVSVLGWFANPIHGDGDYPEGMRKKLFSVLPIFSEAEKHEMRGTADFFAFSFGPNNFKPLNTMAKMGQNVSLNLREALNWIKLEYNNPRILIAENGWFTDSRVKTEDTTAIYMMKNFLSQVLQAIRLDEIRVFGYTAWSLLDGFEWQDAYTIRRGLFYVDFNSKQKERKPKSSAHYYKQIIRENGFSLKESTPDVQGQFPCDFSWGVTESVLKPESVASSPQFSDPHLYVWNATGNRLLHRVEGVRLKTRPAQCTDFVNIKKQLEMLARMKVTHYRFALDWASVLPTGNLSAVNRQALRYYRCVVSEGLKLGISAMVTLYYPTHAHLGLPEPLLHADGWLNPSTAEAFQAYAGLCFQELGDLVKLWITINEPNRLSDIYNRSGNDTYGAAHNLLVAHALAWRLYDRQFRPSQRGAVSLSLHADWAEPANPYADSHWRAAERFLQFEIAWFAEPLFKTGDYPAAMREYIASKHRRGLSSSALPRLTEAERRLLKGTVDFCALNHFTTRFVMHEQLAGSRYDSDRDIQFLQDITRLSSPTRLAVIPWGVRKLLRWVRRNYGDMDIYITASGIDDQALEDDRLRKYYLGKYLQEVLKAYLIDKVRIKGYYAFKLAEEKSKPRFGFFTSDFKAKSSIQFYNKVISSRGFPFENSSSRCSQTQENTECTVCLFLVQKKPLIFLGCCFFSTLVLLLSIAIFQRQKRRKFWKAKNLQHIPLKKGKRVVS
Assay: cell-based or functional assay

B1: Gly-FGF21 (ligand)
chain: GHPIPDSSPLLQFGGQVRQRYLYTDDAQQTEAHLEIREDGTVGGAADQSPESLLQLKALKPGVIQILGVKTSRFLCQRPDGALYGSLHFDPEACSFRELLLEDGYNVYQSEAHGLPLHLPGNKSPHRDPAPRGPARFLPLPGLPPALPEPPGILAPQPPDVGSSDPLSMVGPSQGRSPSYAS
pERK-HEK293-Beta-klotho without HSA [EC50 (nM)] Median Value: 2.1 nM

B2: (Q15F, K56R, K59R, K69R, D102T, N121Q, K122R, Y179F, A180E, S181R) Gly-FGF21 (ligand)
chain: GHPIPDSSPLLQFGGFVRQRYLYTDDAQQTEAHLEIREDGTVGGAADQSPESLLQLRALRPGVIQILGVRTSRFLCQRPDGALYGSLHFDPEACSFRELLLETGYNVYQSEAHGLPLHLPGQRSPHRDPAPRGPARFLPLPGLPPALPEPPGILAPQPPDVGSSDPLSMVGPSQGRSPSFER
pERK-HEK293-Beta-klotho without HSA [EC50 (nM)] Median Value: 75 nM

B3: Gly-FGF21-M168L (ligand)
chain: GHPIPDSSPLLQFGGQVRQRYLYTDDAQQTEAHLEIREDGTVGGAADQSPESLLQLKALKPGVIQILGVKTSRFLCQRPDGALYGSLHFDPEACSFRELLLEDGYNVYQSEAHGLPLHLPGNKSPHRDPAPRGPARFLPLPGLPPALPEPPGILAPQPPDVGSSDPLSLVGPSQGRSPSYAS
pERK-HEK293-Beta-klotho without HSA [EC50 (nM)] Median Value: 1.8 nM

B4: (K56R, K59R, K69R, K122R) FGF21 (ligand)
chain: HPIPDSSPLLQFGGQVRQRYLYTDDAQQTEAHLEIREDGTVGGAADQSPESLLQLRALRPGVIQILGVRTSRFLCQRPDGALYGSLHFDPEACSFRELLLEDGYNVYQSEAHGLPLHLPGNRSPHRDPAPRGPARFLPLPGLPPALPEPPGILAPQPPDVGSSDPLSMVGPSQGRSPSYAS
pERK-HEK293-Beta-klotho without HSA [EC50 (nM)] Median Value: 12 nM
